Data taken from US20080081047A1.
Changes are numbered by the printed parent chain.

B1: F26G3 (antibody, V domains shown)
VH: EVRLQQSGPELVKPGASVKISCKTSGYTFTEYTMHWVKQSHGKNLEWIGGINPNNGGTTYNQKFKGKATLTVDKSSNTAYMELRSLTSEDSAVYYCSRGDYGTSYGYFDVWGAGTTVTVSS
VL: DILMTQSPTSFAVSLGQRATISCRTSQSVSTSSYSYMHWYQQKPGQPPKLLIKYASNLESGVPARFSGSGSGSDFTLNIHPVEEGDTATYYCQHSWEIPCAFGGGTKLEIKR
B2: F26G7 (antibody, V domains shown)
VH: VELLESGTVLARPGASVKMSCEASGYTFTTYWMHWIKQRPGQGLEWIGAIYPGNSDTTYNQKFKGKAKLTAVTSTSTAYMELSSLTNEDSAVYYCTREGIPQLLRTMDYWGQGTSVTVSS
VL: ELVMTQSPSSLSASLGERVSLTCRASQEISGYLSWLQQKPDGTIKRLIYAASTLDSGVPKRFSGSRSGSDYSLTISSLESEDFADYYCLQYISYPWTFGGGTKLEIKR
B3: F26G9 (antibody, V domains shown)
VH: VQLLESGTVLARPGASVKMSCKASGYSFTSYWMHWVKQRPGQGLEWIGAIYPGNSDTSYNQKFKGKAKLTAVTSASTAYMELSSLTNEDSAVYYCTRSVYYGYGYFDVWGAGTTVTVSS
VL: DILMTQSHKCMSTSVGDRVSITCKASQDVSTAVVWYQQKPGQFPKLLIYWASTRHTGVPDRFTGSGSGTDYTLTISSVQAEDLALYYCQQHYTTPYTFGGGTKLEIKR
B4: F26G10 (antibody, V domains shown)
VH: EVQLEESGTVLARPGASVKMSCKASGYSFTSYWMHWVKQRPGQGLDWIGAIYPENSDTSYNQKFKGKAKLTAVTSASTAYMEHSSLTNEDSAVYYCTRSVYYGYGYFDVWGAGTTVTVSS
VL: B3 VL with C10F, V34A, F43S, T93S

Target: SARS-HCoV antigen(s) of unknown identity (purified whole virus, infected Vero cell lysate or infected Vero cells)
Test: ELISA, OD on native virus against OD on heat-denatured virus

Row | Binder | O.D. Reduction, Fold | O.D. Reduction, Percent
1 | B1 | 4.5 fold | 78%
2 | B2 | 5 fold | 80%
3 | B3 | 4.8 fold | 79%
4 | B4 | 4.3 fold | 77%

Target: SARS-HCoV antigen(s) of unknown identity (purified whole virus, infected Vero cell lysate or infected Vero cells)
Test: ELISA, native gradient purified virus coated at 32 ng/well

Row | Binder | ELISA OD 405 nm, Viral Lysate (native)
5 | B1 | 1.25 OD 405 nm
6 | B2 | 1.92 OD 405 nm
7 | B3 | 1.34 OD 405 nm
8 | B4 | 1.26 OD 405 nm

Target: SARS-HCoV antigen(s) of unknown identity (purified whole virus, infected Vero cell lysate or infected Vero cells)
Test: ELISA, virus heated 100 C 10 min, coated at 32 ng/well

Row | Binder | ELISA OD 405 nm, Denatured Lysate
9 | B1 | 0.276 OD 405 nm
10 | B2 | 0.382 OD 405 nm
11 | B3 | 0.278 OD 405 nm
12 | B4 | 0.29 OD 405 nm
